The source of these data is patent US20160311925A1 (UNIVERSITY OF ROCHESTER, published 2016).

In assay [1] the target is T1, His-AmdR1R2-B (Staphylococcus aureus, UniProt Q5HH31 198-775).
T1 construct: also called rAmd; soluble Amd; not shown: BirA biotinylation site
T1 sequence: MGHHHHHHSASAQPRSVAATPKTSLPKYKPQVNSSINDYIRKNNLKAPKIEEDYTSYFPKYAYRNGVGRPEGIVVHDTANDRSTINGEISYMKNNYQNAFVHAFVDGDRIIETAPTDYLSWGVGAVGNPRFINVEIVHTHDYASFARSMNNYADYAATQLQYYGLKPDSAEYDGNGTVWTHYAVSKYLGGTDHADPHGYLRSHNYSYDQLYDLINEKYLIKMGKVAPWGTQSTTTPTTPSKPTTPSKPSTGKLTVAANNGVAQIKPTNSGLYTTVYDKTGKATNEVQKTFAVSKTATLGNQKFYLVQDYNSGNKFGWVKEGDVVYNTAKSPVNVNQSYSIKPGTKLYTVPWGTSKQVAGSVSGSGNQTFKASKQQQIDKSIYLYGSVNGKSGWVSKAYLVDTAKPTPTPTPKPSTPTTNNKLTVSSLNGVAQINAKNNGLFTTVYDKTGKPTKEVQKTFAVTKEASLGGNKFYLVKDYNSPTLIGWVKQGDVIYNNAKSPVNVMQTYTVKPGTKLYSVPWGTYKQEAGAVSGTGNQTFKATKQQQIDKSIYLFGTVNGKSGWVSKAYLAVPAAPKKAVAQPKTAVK
The assay can be described thus: SPR, Biacore T-200; immobilized (captured) mAb, soluble His-AmdR1R2-B. On the technique in general: SPR reads the build-up and loss of mass on a sensor chip optically.

The target in assay [2] is T1, His-AmdR1R2-B. The assay can be described thus: cell-based or functional assay.
In assay [3] the target is T1, His-AmdR1R2-B. The assay can be described thus: SPR, Biacore T-200; immobilized (captured) mAb, soluble His-AmdR1R2-B; average.
Experimental: (§1) The capture (association, t=0 to 120 sec) and release (dissociation, t=120 to 420 sec) phases are presented. […] Measurements were made according the manufacturer's instructions and kinetic data were analyzed using biomolecular interaction analysis (BIA) evaluation software (version 3.1) from Biacore AB.
(§2) The affinity of immobilized anti-Amd mAbs for soluble His-AmdR1R2-B was measured using surface plasmon resonance technology on a Biacore T-200.
Assay [4] concerns the target T1, His-AmdR1R2-B. The assay can be described thus: SPR, Biacore T-200; mAb captured by rabbit anti-mouse Fc IgG on a CM-5 chip, Amd at 1.56 to 25 nM; the single run shown in FIG. 4.
Experimental: as §1, §2
In assay [5] the target is T1, His-AmdR1R2-B. The assay can be described thus: SPR (Biacore T-200): Ab 1.6 (20nM) captured on immobilized rabbit anti-mouse Fc (RamFc), soluble Amd flowed at 1.56 to 25 nM.
Experimental: as §1, §2

B1: anti-Amd mAb Amd1.11 (antibody, V domains shown)
VH: QIQLVQSGPELKKPGETVKISCKASGYTFTNYGMNWVKQAPGKGLEWMGWINTYTGEPTYADDFKGRFAFSLETSASTAYLLINNLKNEDTATYFCARRDGYFDAMDYWGQGTSVTVSS
VL: DILLTQSPAILSVSPGERVSFSCRASQSIGTSIHWYQQRTNGSPRLLIKYASESISGIPSRFSGSGSGTDFTLSINSVESEDIADYYCQQSNSWPALTFG
notes: Mouse hybridoma mAb (Fusion #1), IgG1; The VL is incomplete at the C-terminus
For orientation: Kd means the equilibrium constant for the complex coming apart. Low readings indicate tighter binding, high ones weaker binding. For the molecule B1, the equilibrium dissociation constant (Kd) with His-AmdR1R2-B [1] stood at 3.4 nM.

B2: anti-Amd mAb Amd2.2 (antibody, V domains shown)
VH: ESGPELVKPGASVKISCKASGYTFTDYNMHWVRQSHGKSLEWIGYIYPYNGGTGYNQKFKSKATLTVDNSSSTAYMELRSLTSEDSAVYYCAREDGYYGYFDYWGQGTTLTGSS
VL: EIVLTQSPAITAASLGQKVTITCSASSSVNYMHWYQQKSGTSPKPWIYEISKLASGVPARFSGSGSGTSYSLTISSMEAEDAAIYYCQQWNYPLITFGAGTKLELK
notes: Mouse hybridoma mAb (Fusion #2), IgG1; The VH is incomplete at the N-terminus
As to B2, the Kd with His-AmdR1R2-B [1] is 1.4 nM.

B3: anti-Amd mAb Amd1.9 (antibody, V domains shown)
VH: VESGGGLVKPGGSLKLSCAASGFTFSSYAMSWVRQTPKKSLEWVASITSGGSAYYPDSVKGRFTISRDNARNILNLQMSSLRSEDTAMYYCARDDGYFDYWGQGTTLTVSS
VL: DIQMTQSPASLSVSVGETVTITCRTSENIFSNFAWYQQQPGKSPQLLVYGATNLADGVPSRFSGSGSGTQYSLKITSLQSEDFGSYYCQHFWGSPWTF
notes: Mouse hybridoma mAb (Fusion #1), IgG1; The variable domains are incomplete at the termini
In turn, B3 registered a Kd with His-AmdR1R2-B [1] of 2.6 nM.

B4: anti-Amd mAb Amd1.6 (antibody, IgG1, V domains shown)
VH: QSGTVLARPGTSVKMSCKASGYSFTNYWMHWVRQRPGQGLEWIGSIYPGNSDTTYNQKFKDKAKLTAVTSASTAYMELSSLTNEDSAVYYCTGDDYSRFSYWGQGTLVTVSA
VL: SIVMTQTPKFLLVSAGDRLTITCKASQSVSNDVAWYQQKPGQSPKLLIYYTSNRYTGVPDRFTGSGYGTDFTFTISTVQAEDLAVYFCQQDYNSPWTFGGGTK
notes: Mouse hybridoma mAb (Fusion #1), IgG1; The variable domains are incomplete at the termini; also called mAb1.6
Turning to B4, the “IC50 (read off the curve)” value in the assay with His-AmdR1R2-B [2] was approximately 2 µg/mL. Moreover, the Kd in the assay with His-AmdR1R2-B [3] was 2.1 nM; with His-AmdR1R2-B [4], approximately 1 nM; in the assay with His-AmdR1R2-B [5], 1.03 nM.

B5: anti-Amd mAb Amd1.1 (antibody, IgG1, V domains shown)
VH: QQSGAELVKPGASVKLSCTASGFNIKDTYIHWVKQRPEQGLEWIGRIDPANGITNYDPKFQGRATITADTSSNIAYLQLTSLTSEGTAVYYCARGGYLSPYAMDYWGQGTSVTVSS
VL: ENVLTQSPAIMSASLGEKVTMTCRASSSVNYMFWFQQKSDASPKLWIYYTSNLAPGVPARFSGSGSGNSYSLTISSMEGEDAATYYCQEFTSFPYTFG
In the assay with His-AmdR1R2-B [1], B5 returned a Kd of 2.5 nM.
